For this test, the target named is kalium channelrhodopsin 1 from Hyphochytrium catenoides, slow-cycling mutant C110A (HcKCR1_C110A) (Hyphochytrium catenoides). In words: cryo-EM structure.

As usually defined, the stoichiometry N is a count of units in the complex or per binding partner.

In turn, “kalium channelrhodopsin 1 from Hyphochytrium catenoides, slow-cycling mutant C110A (HcKCR1_C110A) (domain or fragment)” returned a stoichiometry N of 3.

The values are drawn from publication PMC11790859.
